Assay results as given in patent publication US20250326843A1 (HARBOUR BIOMED SHANGHAI, published 2025).

Columns and labels:
murine B7-H4 = target: T1, murine B7-H4 (murine, UniProt Q7TSP5 25-257); assay: flow cytometry on CHO-K1/mB7-H4 cells
T1 construct: whole, on cells; also called mB7-H4
T1 sequence (looked up): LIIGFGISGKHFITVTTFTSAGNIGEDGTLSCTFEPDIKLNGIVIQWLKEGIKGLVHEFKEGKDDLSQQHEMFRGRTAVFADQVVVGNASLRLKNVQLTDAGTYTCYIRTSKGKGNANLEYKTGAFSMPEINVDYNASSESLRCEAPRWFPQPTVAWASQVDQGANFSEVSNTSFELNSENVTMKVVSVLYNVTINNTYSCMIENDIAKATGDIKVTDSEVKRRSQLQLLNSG
Source text: (§1) The CHO-K1 cell strain CHO-K1/huB7-H4 over-expressing human B7-H4 (produced in-house by Harbour BioMed), the CHO-K1 cell strain CHO-K1/cynoB7-H4 over-expressing cynomolgus monkey B7-H4 (produced in-house by Harbour BioMed), the CHO-K1 cell strain CHO-K1/mB7-H4 over-expressing murine B7-H4 (produced in-house by Harbour BioMed), SK-BR-3 and MDA-MB-468 cells were digested. T cells were isolated using the human T cell isolation kit (Miltenyi, #130-096-535) as described in the method of the instruction, and resuspended with PBS containing 2% FBS. The cell density was adjusted to 1×10⁶ cells/mL. The cells were seeded onto a 96-well V-bottom plate (Coming, #3894) at 100 μL/well, followed by the addition of test antibodies diluted in a 3-fold gradient at a concentration that was 2 times the final concentration, each at 100 μL/well. The cells were incubated away from light at 4° C. for 2 h. Thereafter, the cells in each well were rinsed twice with 100 μL of pre-cooled PBS containing 2% BSA, and centrifuged at 500 g at 4° C. for 5 min, and then the supernatant was discarded. […] Finally, the cells in each well were resuspended with 200 μL of pre-cooled PBS containing 2% BSA, and the fluorescence signal values were read using an ACEA Novocyte3000 flow cytometer.

human B7-H4 = target: T2, human B7-H4 (human, UniProt Q7Z7D3 25-282); assay: flow cytometry on CHO-K1/huB7-H4 cells
T2 construct: whole, on cells; also called huB7-H4; B7-H4 on CHO-K1/huB7-H4, SK-BR-3 and MDA-MB-468 cells
T2 sequence (looked up): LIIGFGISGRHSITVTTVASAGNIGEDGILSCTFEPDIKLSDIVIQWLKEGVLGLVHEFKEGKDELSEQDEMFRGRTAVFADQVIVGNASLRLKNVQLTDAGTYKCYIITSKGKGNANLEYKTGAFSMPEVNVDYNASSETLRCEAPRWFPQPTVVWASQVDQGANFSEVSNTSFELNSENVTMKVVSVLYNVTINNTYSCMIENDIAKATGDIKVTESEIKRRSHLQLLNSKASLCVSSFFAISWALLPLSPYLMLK
Source text: as §1

| Binder | binding result (murine B7-H4) | binding result (human B7-H4) |
| --- | --- | --- |
| B7-H4×CD3 bispecific antibody PR003733 (bispecific antibody, human IgG1, lambda, L234A L235A, Fab-Fc-scFv asymmetric structure (structure A); CD3 arm from PR001848, B7-H4 arm from PR003366) light: QAVVTQEPSLTVSPGGTVTLTCRSSTGAVTTSNYANWVQQKPGQAPRGLIGGTNKRAPWTPARFSGSLLGDKAALTLLGAQPEDEAEYFCALWYSNLWVFGGGTKLTVLGQPKAAPSVTLFPPSSEELQANKATLVCLISDFYPGAVTVAWKADSSPVKAGVETTTPSKQSNNKYAASSYLSLTPEQWKSHRSYSCQVTHEGSTVEKTVAPTECS heavy: not shown EIVMTQSPASLSVSPGERATLSCRASQSVSSNLAWYQQKPGQAPRLLIYGASTRATGIPARVSGGGSGTEFTLTISSLQSEDFAVYYCQQYKNWPFTFGPGTKLEIKGGGGSGGGGSGGGGSGGGGSQVQLVQSGAEVKKPGSSMRVSCKASEDTFSSYAISWVRQAPGQGLEWMGGTAPIFGTTNYAQKFQGRVTITADKSTSTAYMELSSLRSEDTAVYYCARGGPYFDYWGQGTLVTVSSASEPKSSDKTHTCPPCPAPEAAGGPSVFLFPPKPKDTLMISRTPEVTCVVVDVSHEDPEVKFNWYVDGVEVHNAKTKPREEQYNSTYRVVSVLTVLHQDWLNGKEYKCKVSNKALPAPIEKTISKAKGQPREPQVCTLPPSREEMTKNQVSLSCAVKGFYPSDIAVEWESNGQPENNYKTTPPVLDSDGSFFLVSKLTVDKSRWQQGNVFSCSVMHEALHNHYTQKSLSLSPGK | binds | – |
| B7-H4×CD3 bispecific antibody PR003899 (bispecific antibody, human IgG1, lambda, L234A L235A, Fab-Fc-scFv asymmetric structure (structure A); CD3 arm from PR003886, B7-H4 arm from PR003366) light: QAVVTQEPSLTVSPGGTVTLTCRSSTGAVTTSNYANWVQQKPGQAPRGLIGGTNKRAPWTPARFSGSLLGDKAALTLLGAQPEDEAEYFCALWYSNLWVFGGGTKLTVLGQPKAAPSVTLFPPSSEELQANKATLVCLISDFYPGAVTVAWKADSSPVKAGVETTTPSKQSNNKYAASSYLSLTPEQWKSHRSYSCQVTHEGSTVEKTVAPTECS heavy: not shown EIVMTQSPASLSVSPGERATLSCRASQSVSSNLAWYQQKPGQAPRLLIYGASTRATGIPARVSGGGSGTEFTLTISSLQSEDFAVYYCQQYKNWPFTFGPGTKLEIKGGGGSGGGGSGGGGSGGGGSQVQLVQSGAEVKKPGSSMRVSCKASEDTFSSYAISWVRQAPGQGLEWMGGTAPIFGTTNYAQKFQGRVTITADKSTSTAYMELSSLRSEDTAVYYCARGGPYFDYWGQGTLVTVSSASEPKSSDKTHTCPPCPAPEAAGGPSVFLFPPKPKDTLMISRTPEVTCVVVDVSHEDPEVKFNWYVDGVEVHNAKTKPREEQYNSTYRVVSVLTVLHQDWLNGKEYKCKVSNKALPAPIEKTISKAKGQPREPQVCTLPPSREEMTKNQVSLSCAVKGFYPSDIAVEWESNGQPENNYKTTPPVLDSDGSFFLVSKLTVDKSRWQQGNVFSCSVMHEALHNHYTQKSLSLSPGK | binds | binds |
